These results are taken from PMC13066552 (Nature Communications, 2026).

This data set concerns the molecule itself. Kind of data set: methyl-TROSY NMR spectra compared.

B1: Bpa 45-153 (domain or fragment)
chain: AKVMRIGTMIKQLLEEVRAAPLDEASRNRLRDIHATSIRELEDGLAPELREELDRLTLPFNEDAVPSDAELRIAQAQLVGWLEGLFHGIQTALFAQQMAARAQLQQMRQ
Broadly, the stoichiometry N is the number of molecules, sites or subunits per partner or assembly. On to B1, for which the “stoichiometry N” value came to 4 subunits.
